# Reference: patent US20160251438A1 (LUDWIG INSTITUTE FOR CANCER RESEARCH, published 2016)
# What was measured:
# Assay in all cases: FACS titration on transfected 293T; EC50 mutant / EC50 WT [cont.) B]
# [1] = target: GARP L140K/E142L / TGF-β1 complex (human, UniProt Q14392 20-662; P01137 30-390)
# Description: (§1) Intensities of staining at each concentration of antibody relative to the maximal intensity measured at 5 μg/ml were determined as follows:
# (§2) The relative staining intensities were plotted according to the concentration of antibody used for staining, and a non-linear regression analysis was used with the Prism software to determine an EC₅₀ value for binding of the antibody to the WT and to each of the various mutant GARP/TGF-β1 complexes. If the ratio between the EC₅₀ measured on the mutant and the EC₅₀ measured on the WT was >2, the mutation was considered to induce a reduced avidity for binding by the antibody. The ratio of EC₅₀ (mutant vs WT) for MHG-8 and LHG-10 are indicated below each mutation on FIG. 19, parts A and B, respectively.
# [2] = target: GARP G139N / TGF-β1 complex (human, UniProt Q14392 20-662; P01137 30-390)
# Description: as §1, §2
# [3] = target: GARP G118L/G119L / TGF-β1 complex (human, UniProt Q14392 20-662; P01137 30-390)
# Description: as §1, §2
# [4] = target: GARP / TGF-β1 K338E complex (human, UniProt Q14392 20-662; P01137 30-390)
# Description: as §1, §2
# [5] = target: GARP Y137H / TGF-β1 complex (human, UniProt Q14392 20-662; P01137 30-390)
# Description: as §1, §2
# [6] = target: GARP / TGF-β1 Q272Y complex (human, UniProt Q14392 20-662; P01137 30-390)
# Description: as §1, §2
# [7] = target: GARP / TGF-β1 Y284A complex (human, UniProt Q14392 20-662; P01137 30-390)
# Description: as §1, §2
# [8] = target: GARP / TGF-β1 H270Y complex (human, UniProt Q14392 20-662; P01137 30-390)
# Description: as §1, §2
# [9] = target: GARP / TGF-β1 Y336A complex (human, UniProt Q14392 20-662; P01137 30-390)
# Description: as §1, §2
# [10] = target: GARP / TGF-β1 E146R complex (human, UniProt Q14392 20-662; P01137 30-390)
# Description: as §1, §2
# [11] = target: GARP / TGF-β1 S337A complex (human, UniProt Q14392 20-662; P01137 30-390)
# Description: as §1, §2
# [12] = target: GARP R170A / TGF-β1 complex (human, UniProt Q14392 20-662; P01137 30-390)
# Description: as §1, §2
# [13] = target: GARP E189A / TGF-β1 complex (human, UniProt Q14392 20-662; P01137 30-390)
# Description: as §1, §2
# [14] = target: GARP R163E / TGF-β1 complex (human, UniProt Q14392 20-662; P01137 30-390)
# Description: as §1, §2
# [15] = target: GARP / TGF-β1 R58A complex (human, UniProt Q14392 20-662; P01137 30-390)
# Description: as §1, §2
# [16] = target: GARP R166M/H167E / TGF-β1 complex (human, UniProt Q14392 20-662; P01137 30-390)
# Description: as §1, §2
# [17] = target: GARP S138G / TGF-β1 complex (human, UniProt Q14392 20-662; P01137 30-390)
# Description: as §1, §2
# [18] = target: GARP / TGF-β1 Q269Y complex (human, UniProt Q14392 20-662; P01137 30-390)
# Description: as §1, §2
# [19] = target: GARP M111T/A112G/T113M / TGF-β1 complex (human, UniProt Q14392 20-662; P01137 30-390)
# Description: as §1, §2
# [20] = target: GARP T165A / TGF-β1 complex (human, UniProt Q14392 20-662; P01137 30-390)
# Description: as §1, §2
# Sequence of GARP / TGF-β1 Y336A complex (Q14392 20-662 limits assumed, chain 1 of 2): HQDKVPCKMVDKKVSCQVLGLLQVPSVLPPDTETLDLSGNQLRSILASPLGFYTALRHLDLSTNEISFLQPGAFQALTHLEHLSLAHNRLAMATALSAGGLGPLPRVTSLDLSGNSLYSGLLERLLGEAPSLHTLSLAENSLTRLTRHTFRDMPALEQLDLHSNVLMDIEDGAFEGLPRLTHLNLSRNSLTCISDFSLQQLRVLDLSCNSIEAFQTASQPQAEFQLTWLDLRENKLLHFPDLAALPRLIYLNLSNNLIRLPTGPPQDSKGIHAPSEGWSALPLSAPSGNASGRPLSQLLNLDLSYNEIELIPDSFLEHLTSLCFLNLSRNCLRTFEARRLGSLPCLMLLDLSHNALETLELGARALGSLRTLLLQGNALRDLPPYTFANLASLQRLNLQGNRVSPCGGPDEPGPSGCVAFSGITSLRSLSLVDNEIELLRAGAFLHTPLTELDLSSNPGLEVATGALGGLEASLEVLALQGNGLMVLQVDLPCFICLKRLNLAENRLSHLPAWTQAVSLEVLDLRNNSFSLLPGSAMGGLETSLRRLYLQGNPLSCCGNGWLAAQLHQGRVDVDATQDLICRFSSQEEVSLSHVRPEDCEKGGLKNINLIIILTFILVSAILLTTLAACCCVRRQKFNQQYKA
# Sequence of GARP / TGF-β1 Y336A complex (P01137 30-390 Y336A limits assumed, chain 2 of 2): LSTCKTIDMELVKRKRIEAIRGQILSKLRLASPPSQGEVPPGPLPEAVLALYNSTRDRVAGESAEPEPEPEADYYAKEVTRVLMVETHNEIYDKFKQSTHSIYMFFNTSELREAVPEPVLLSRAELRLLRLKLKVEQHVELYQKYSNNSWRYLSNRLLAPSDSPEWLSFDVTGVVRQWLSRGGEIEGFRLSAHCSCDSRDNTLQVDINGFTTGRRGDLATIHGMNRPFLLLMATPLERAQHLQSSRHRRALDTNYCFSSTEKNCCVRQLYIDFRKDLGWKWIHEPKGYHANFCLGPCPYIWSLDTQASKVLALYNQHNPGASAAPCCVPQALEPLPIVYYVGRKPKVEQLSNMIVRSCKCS
# Sequence of GARP / TGF-β1 R58A complex (Q14392 20-662 limits assumed, chain 1 of 2): as the sequence (Q14392 20-662 limits assumed, chain 1 of 2) above
# Sequence of GARP / TGF-β1 R58A complex (P01137 30-390 R58A limits assumed, chain 2 of 2): as the sequence (P01137 30-390 Y336A limits assumed, chain 2 of 2) above, with R29A, A307Y counted along it
# Sequence of GARP / TGF-β1 E146R complex (Q14392 20-662 limits assumed, chain 1 of 2): as the sequence (Q14392 20-662 limits assumed, chain 1 of 2) above
# Sequence of GARP / TGF-β1 E146R complex (P01137 30-390 E146R limits assumed, chain 2 of 2): as the sequence (P01137 30-390 Y336A limits assumed, chain 2 of 2) above, with E117R, A307Y counted along it
# Sequence of GARP / TGF-β1 H270Y complex (Q14392 20-662 limits assumed, chain 1 of 2): as the sequence (Q14392 20-662 limits assumed, chain 1 of 2) above
# Sequence of GARP / TGF-β1 H270Y complex (P01137 30-390 H270Y limits assumed, chain 2 of 2): as the sequence (P01137 30-390 Y336A limits assumed, chain 2 of 2) above, with H241Y, A307Y counted along it
binder,measurement,setting,value
"LHG-10 (antibody, human IgG1, V domains shown, llama-derived V regions in a full human IgG1) VH: EVQLVQPGAELRNSGASVKVSCKASGYRFTSYYIDWVRQAPGQGLEWMGRIDPEDGGTKYAQKFQGRVTFTADTSTSTAYVELSSLRSEDTAVYYCARNEWETVVVGDLMYEYEYWGQGTQVTVSS VL: DIQMTQSPTSLSASLGDRVTITCQASQSISSYLAWYQQKPGQAPKLLIYGASRLQTGVPSRFSGSGSGTSFTLTISGLEAEDAGTYYCQQYDSLPVTFGQGTKVELK",Ratio of EC50 (mutant / wt),[1],0.7
same,Ratio of EC50 (mutant / wt),[2],1.2
same,Ratio of EC50 (mutant / wt),[3],0.8
same,Ratio of EC50 (mutant / wt),[4],7.2
same,Ratio of EC50 (mutant / wt),[5],0.6
same,Ratio of EC50 (mutant / wt),[6],0.9
same,Ratio of EC50 (mutant / wt),[7],1.9
same,Ratio of EC50 (mutant / wt),[8],0.7
same,Ratio of EC50 (mutant / wt),[9],1.9
same,Ratio of EC50 (mutant / wt),[10],0.8
same,Ratio of EC50 (mutant / wt),[11],1.4
same,Ratio of EC50 (mutant / wt),[12],1.5
same,Ratio of EC50 (mutant / wt),[13],0.8
same,Ratio of EC50 (mutant / wt),[14],4.1
same,Ratio of EC50 (mutant / wt),[15],1.5
same,Ratio of EC50 (mutant / wt),[16],1.5
same,Ratio of EC50 (mutant / wt),[17],0.6
same,Ratio of EC50 (mutant / wt),[18],0.8
same,Ratio of EC50 (mutant / wt),[19],1.2
same,Ratio of EC50 (mutant / wt),[20],1
